According to patent US20220162322A1 (CAPELLA BIOSCIENCE, published 2022):
Where a chain is given by its changes, count along the chain named. Each block holds one binder with its values, some of them ahead of it.

Assays:
[1] = molecular target: T1, human BDCA-2-Fc (hIgG1-Fc-hBDCA-2) (human); test: SPR (BIAcore T200), huBDCA2-Fc immobilised on CM5 chip, mAb injected
T1 construct: also called huBDCA2-Fc
Experimental: A BIAcore T200 was used with BIAcore run buffer (HBS-EP) at pH7.4. 692RU of huBDCA2-Fc was immobilized to a CM5 chip (CFJB156) utilising 5 μg/ml of huBDCA2-Fc with the BIAcore EDC/NHS kit according to the manufacturer's instructions. Two-fold dilutions of the humanized mAbs were injected starting at 200 nM down to 3.1 nM with a contact time of 60 s at a flow of 30 or 60 ul/min at 25° C. followed by an off-rate wash for 5 minutes with BIAcore buffer. […] The BIAcore T200 software was used to calculate Ka (1/Ms), Kd (1/s) and the KD (nM).

[2] = molecular target: T1, human BDCA-2-Fc (hIgG1-Fc-hBDCA-2); test: ELISA on plate-coated human BDCA2-Fc
Experimental: 100 ul per well of 0.5 μg/ml of human BDCA2-Fc in PBS pH 7.4 was incubated overnight at 4 C. The wells were then washed 3 times with PBST (PBS+0.05% Tween 20) and then blocked with 250 ul 4% Skimmed Milk (Marvel, cat. no. 3023033 Lot no. 7169) in PBS for 120 min at RT. The wells were washed and then incubated with 100 ul per well of humanized mAbs at 3 fold dilutions (from 1 μg/ml to 0.001 μg/ml) in 1% Skimmed Milk PBS buffer at pH 7.4. After 60 min at RT the wells were washed 3 times in PBST and 100 ul of mouse anti-human IgG (anti-CH1-HRP; 1:1000, BD Pharmigen cat. no. 555788) or donkey anti-mouse IgG (anti-mouse IgG-HRP) at 1:5000 dilution (Jackson ImmunoResearch, Cat. no. 715-035-150) in 1% Skimmed Milk PBS was added. Development was with TMB (ThermoFisher, cat. no. 00-4201-56), 100 ul/well and the reaction stopped with 100 μl/well H2SO4 (cat. nr. J/8430/15, lot nr.) and the absorbance read at 450 nm. The EC50 was calculated using Graphpad Prism software. A negative (1% Skimmed Milk/PBS) and positive control (anti-BDCA-2, AC144, Miltenyi Biotec, cat. no. 130-090-690) were utilised in the assay.

[3] = molecular target: T1, human BDCA-2-Fc (hIgG1-Fc-hBDCA-2); test: SPR (BIAcore), comparison of KD

T1 sequence (chain, as listed by the source limits assumed): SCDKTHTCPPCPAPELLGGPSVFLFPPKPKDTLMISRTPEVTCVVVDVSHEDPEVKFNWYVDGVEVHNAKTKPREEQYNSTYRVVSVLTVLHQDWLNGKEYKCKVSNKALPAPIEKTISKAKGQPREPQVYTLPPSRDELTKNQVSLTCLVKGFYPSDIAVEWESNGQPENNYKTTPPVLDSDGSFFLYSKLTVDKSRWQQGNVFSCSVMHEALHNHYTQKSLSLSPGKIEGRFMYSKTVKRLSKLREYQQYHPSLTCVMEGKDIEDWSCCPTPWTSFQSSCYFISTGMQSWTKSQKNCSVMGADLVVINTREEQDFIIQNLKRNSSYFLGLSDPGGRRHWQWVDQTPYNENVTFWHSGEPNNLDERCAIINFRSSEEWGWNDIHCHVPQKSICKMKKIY

Kd [1]: 0.7 nM
B1: anti-BDCA-2 mAb BIIB059 (from patent WO2014093396) (antibody, V domains shown)
VH: DVQLVESGGGLVKPGGSLRLSCAASGFTFSTYTMSWVRQAPGKGLEWVATISPGDSFGYYYPDSVQGRFTISRDNAKNSLYLQMNSLRAEDTAVYYCTRDIYYNYGAWFAYWGQGTLVTVSS
VL: DIQLTQSPSSLSASVGDRVTITCKASQSVDYDGDSYMNWYQQKPGKAPKLLIYAASTLESGVPSRFSGSGSGTDFTLTISSLQPEDFATYYCQQANEDPRTFGQGTKVEIKR

EC50 [2]: 1.12 nM
fold higher affinity than parental wild type 3E05 and AC144 [3]: > 100 fold
Kd [1]: < 0.01 nM
B3: 3E05_var9 (antibody, human IgG1, V domains shown)
VH: EVQLVESGGGLVKPGGSLRLSCAASGFTFSSYTMSWVRQAPGKGLEWVAYISSGGGNTYYPDSVKGRFTISRDNAKNSLYLQMNSLRAEDTAVYYCARHDYYDGGLYYAMDYWGQGTLVTVSS
VL: DIVMTQSPDSLAVSLGERATINCKSSQSVDYDGDSSMNWYQQKPGQPPKLLIYAASTLESGVPSRFSGSGSGTDFTLTISSLQAEDVATYYCQQTNEDPPTFGGGTKVEIK
notes: also called 3E05 VL3VH1 (var_9)

EC50 [2]: 0.71 nM
Kd [1]: 0.73 nM
B6: 3E05_var10 (antibody, human IgG1, V domains shown)
VH: B3 VH with E1Q, A49S, P61A
VL: B3 VL
notes: also called 3E05 VL3VH2 (var_10)

EC50 [2]: 0.81 nM
Kd [1]: 0.94 nM
B10: 3E05_var11 (antibody, human IgG1, V domains shown)
VH: B3 VH with N57Q
VL: B3 VL
notes: also called 3E05 VL3VH3 (var_11)

EC50 [2]: 0.25 nM
fold higher affinity than parental wild type 3E05 and AC144 [3]: > 100 fold
Kd [1]: < 0.01 nM
B11: 3E05_var15 (antibody, human IgG1, V domains shown)
VH: B3 VH with N57Q
VL: B3 VL with S25A, D32E, Y53S, T89V
notes: also called 3E05 VL4VH3 (var_15)

EC50 [2]: 0.45 nM
fold higher affinity than parental wild type 3E05 and AC144 [3]: > 100 fold
Kd [1]: < 0.01 nM
B12: 3E05_var13 (antibody, human IgG1, V domains shown)
VH: B3 VH
VL: B3 VL with S25A, D32E, Y53S, T89V
notes: also called 3E05 VL4VH1 (var_13)

The remaining lines, values behind:

B2: 3E05_var1 (antibody, human IgG1, V domains shown)
VH: B3 VH
VL: B3 VL with S25A, Y53S, T89V
notes: also called 3E05 VL1VH1 (var_1)
EC50 [2]: 0.51 nM
fold higher affinity than parental wild type 3E05 and AC144 [3]: > 100 fold
Kd [1]: < 0.01 nM

B4: 3E05_var2 (antibody, human IgG1, V domains shown)
VH: B3 VH with E1Q, A49S, P61A
VL: B3 VL with S25A, Y53S, T89V
notes: also called 3E05 VL1VH2 (var_2)
EC50 [2]: 0.32 nM
Kd [1]: 0.3 nM

B5: 3E05_var8 (antibody, human IgG1, V domains shown)
VH: B3 VH with N57Q, D103E
VL: B3 VL with Y53S
EC50 [2]: 0.21 nM
fold higher affinity than parental wild type 3E05 and AC144 [3]: > 100 fold
Kd [1]: < 0.01 nM

B7: 3E05_var5 (antibody, human IgG1, V domains shown)
VH: B3 VH
VL: B3 VL with Y53S
notes: also called 3E05 VL2VH1 (var_5)
EC50 [2]: 0.51 nM
fold higher affinity than parental wild type 3E05 and AC144 [3]: > 100 fold
Kd [1]: < 0.01 nM

B8: 3E05_var7 (antibody, human IgG1, V domains shown)
VH: B3 VH with N57Q
VL: B3 VL with Y53S
notes: also called 3E05 VL2VH3 (var_7)
EC50 [2]: 0.33 nM
fold higher affinity than parental wild type 3E05 and AC144 [3]: > 100 fold
Kd [1]: < 0.01 nM

B9: 3E05_var3 (antibody, human IgG1, V domains shown)
VH: B3 VH with N57Q
VL: B3 VL with S25A, Y53S, T89V
notes: also called 3E05 VL1VH3 (var_3)
EC50 [2]: 0.27 nM
fold higher affinity than parental wild type 3E05 and AC144 [3]: > 100 fold
Kd [1]: < 0.01 nM

B13: 3E05_var4 (antibody, human IgG1, V domains shown)
VH: B3 VH with N57Q, D103E
VL: B3 VL with S25A, Y53S, T89V
notes: also called 3E05 VL1VH4 (var_4)
EC50 [2]: 0.29 nM
fold higher affinity than parental wild type 3E05 and AC144 [3]: > 100 fold
Kd [1]: < 0.01 nM
